Assay results taken from US20130302347A1 (Genentech, published 2013).

What was measured:
Test in all cases: SPR screen of TNF-like ligands
[1] = molecular target: T1, TL1A (UniProt O95150 72-251)
T1 sequence (looked up): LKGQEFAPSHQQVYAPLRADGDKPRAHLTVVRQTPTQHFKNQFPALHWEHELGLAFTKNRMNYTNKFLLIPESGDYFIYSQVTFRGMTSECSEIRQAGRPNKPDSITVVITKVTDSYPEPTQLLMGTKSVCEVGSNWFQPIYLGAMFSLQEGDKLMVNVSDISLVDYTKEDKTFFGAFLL
Method: (§1) Surface plasmon resonance (SPR) was run on a BiaCore 3000 (GE healthcare, Piscataway, N.J.) at 25° C. using anti-human IgG F(ab′)₂ (Jackson Immunoresearch, West Grove, Pa.) amine-coupled to BiaCore CM5 sensor chips. For kinetic analysis of protein interactions, Fc-fusion proteins at 25 μg/ml were first captured onto sensor chips by injecting them for 3 min at 5 μl/min. Then, test proteins diluted to their indicated concentrations in HBS-P buffer (0.01 M Hepes, pH 7.4 0.15 M NaCl 0.005% Surfactant P20) were injected for 3 min at 30 μl/min. Dissociation in HBS-P buffer alone was then measured at a flow rate of […]. Sensor chips surfaces were regenerated by injecting 10 mM glycine pH 1.5 for 30 s after each cycle. Kinetic parameters were determined by fitting the data to a 1:1 Langmuir model using the Biacore 3000 evaluation software (GE Healthcare).

[2] = molecular target: TRAIL (UniProt P50591 114-281)
Method: as §1

[3] = molecular target: BAFF (UniProt Q9Y275 134-285, limits assumed)
Method: as §1

[4] = molecular target: TNFα (UniProt P01375 77-233)
Method: as §1

[5] = molecular target: T2, LTα (UniProt P01374 35-205)
T2 sequence (looked up): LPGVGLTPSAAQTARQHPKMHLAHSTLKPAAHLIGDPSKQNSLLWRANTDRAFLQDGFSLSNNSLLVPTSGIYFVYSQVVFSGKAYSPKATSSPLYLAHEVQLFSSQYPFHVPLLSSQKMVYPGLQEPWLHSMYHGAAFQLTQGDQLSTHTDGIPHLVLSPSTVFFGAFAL
Method: as §1

[6] = molecular target: TNFSF14 (UniProt O43557 74-240, limits assumed)
Method: as §1

[7] = molecular target: T3, APRIL (UniProt O75888 105-250, limits assumed)
T3 sequence (looked up): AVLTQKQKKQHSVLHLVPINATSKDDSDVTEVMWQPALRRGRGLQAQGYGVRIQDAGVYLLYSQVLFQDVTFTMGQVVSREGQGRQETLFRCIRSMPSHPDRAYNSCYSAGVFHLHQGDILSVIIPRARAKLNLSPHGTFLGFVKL
Method: as §1

[8] = molecular target: T4, RANKL (UniProt O14788 140-317, limits assumed)
T4 sequence (looked up): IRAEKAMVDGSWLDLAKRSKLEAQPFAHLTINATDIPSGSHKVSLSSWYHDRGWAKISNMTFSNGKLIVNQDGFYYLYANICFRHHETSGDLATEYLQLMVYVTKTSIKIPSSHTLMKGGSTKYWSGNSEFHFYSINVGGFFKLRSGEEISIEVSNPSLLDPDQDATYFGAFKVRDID
Method: as §1

[9] = molecular target: 4-1 BBL (UniProt P41273 71-254, limits assumed)
Method: as §1

[10] = molecular target: T5, CD30L (UniProt P32971 63-234)
T5 sequence (looked up): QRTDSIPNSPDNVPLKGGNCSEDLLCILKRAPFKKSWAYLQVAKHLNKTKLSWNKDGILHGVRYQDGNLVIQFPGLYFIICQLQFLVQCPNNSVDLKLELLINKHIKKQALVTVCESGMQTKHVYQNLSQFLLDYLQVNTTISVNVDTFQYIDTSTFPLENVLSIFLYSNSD
Method: as §1

[11] = molecular target: T6, EDA-A1 (UniProt Q92838 245-391, limits assumed)
T6 sequence (looked up): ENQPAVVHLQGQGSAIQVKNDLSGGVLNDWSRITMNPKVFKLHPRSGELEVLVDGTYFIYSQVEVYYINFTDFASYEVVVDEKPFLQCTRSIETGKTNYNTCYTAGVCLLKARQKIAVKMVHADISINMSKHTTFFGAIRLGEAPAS
Method: as §1

[12] = molecular target: T7, FasL (UniProt P48023 134-281)
T7 sequence (looked up): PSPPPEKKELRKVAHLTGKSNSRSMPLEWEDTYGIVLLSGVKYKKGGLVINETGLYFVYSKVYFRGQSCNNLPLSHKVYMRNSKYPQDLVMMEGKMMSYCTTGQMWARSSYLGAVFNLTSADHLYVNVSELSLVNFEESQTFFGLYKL
Method: as §1

[13] = molecular target: T8, CD27L (UniProt P32970 39-193, limits assumed)
T8 sequence (looked up): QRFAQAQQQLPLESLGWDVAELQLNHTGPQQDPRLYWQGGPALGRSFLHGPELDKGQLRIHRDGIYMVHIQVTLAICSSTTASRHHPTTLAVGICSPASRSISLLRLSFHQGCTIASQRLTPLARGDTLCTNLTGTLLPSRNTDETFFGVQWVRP
Method: as §1

Measured: binding result

4-1 BBL, sequence (P41273 71-254 limits assumed): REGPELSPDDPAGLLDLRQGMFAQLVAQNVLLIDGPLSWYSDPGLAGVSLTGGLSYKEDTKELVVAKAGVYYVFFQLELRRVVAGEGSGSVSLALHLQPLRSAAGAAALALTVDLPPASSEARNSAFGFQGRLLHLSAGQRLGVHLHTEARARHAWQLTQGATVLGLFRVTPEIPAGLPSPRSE
TRAIL, sequence (P50591 114-281 limits assumed): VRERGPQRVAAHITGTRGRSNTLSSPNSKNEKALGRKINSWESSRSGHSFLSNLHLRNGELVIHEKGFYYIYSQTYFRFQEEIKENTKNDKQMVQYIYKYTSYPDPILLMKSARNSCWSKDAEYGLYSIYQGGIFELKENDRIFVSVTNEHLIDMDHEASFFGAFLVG
TNFSF14, sequence (O43557 74-240 limits assumed): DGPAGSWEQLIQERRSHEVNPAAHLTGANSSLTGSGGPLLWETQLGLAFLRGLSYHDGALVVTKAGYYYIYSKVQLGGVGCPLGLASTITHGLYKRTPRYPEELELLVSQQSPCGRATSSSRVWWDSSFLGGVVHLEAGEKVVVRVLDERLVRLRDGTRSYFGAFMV
TNFα, sequence (P01375 77-233 limits assumed): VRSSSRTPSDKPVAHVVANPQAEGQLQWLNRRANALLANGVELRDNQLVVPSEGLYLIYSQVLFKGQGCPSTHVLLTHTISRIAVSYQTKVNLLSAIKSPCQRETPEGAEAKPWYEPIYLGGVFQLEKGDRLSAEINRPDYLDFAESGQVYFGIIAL
BAFF, sequence (Q9Y275 134-285 limits assumed): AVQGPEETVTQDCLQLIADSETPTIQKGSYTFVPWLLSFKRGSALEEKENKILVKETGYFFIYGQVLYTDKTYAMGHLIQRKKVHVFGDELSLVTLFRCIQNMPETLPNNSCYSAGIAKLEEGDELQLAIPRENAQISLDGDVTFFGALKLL

B1: TMEM149-Fc (human TMEM149 extracellular domain with C-terminal human IgG1 Fc) (Fc fusion)
chain: SQYCGRLEYWNPDNKCCSSCLQRFGPPPCPDYEFRENCGLNDHGDFVTPPFRKCSSGQCNPDGAELCSPCGGGAVTPTPAAGGGRTPWRCRERPVPAKGHCPLTPGNPGAPSSQERSSPASSIAWRTPEPVPQQAWPN
notes: also called recombinant human TMEM149-Fc; Fc-TMEM149; not shown: human IgG1 Fc, C-terminal
no binding: all assays above
